According to PMC3792966:

Biological target: SspA of F. tularensis SCHU S4 fused to the Zif protein (F. tularensis SCHU S4)
Experiment: two-hybrid

MglA of F. tularensis SCHU S4 fused to the ω subunit of E. coli RNA polymerase (natural protein)
β-galactosidase activity in strain AW23: 2400 AU
β-galactosidase activity in strain AW24: 26000 AU
